The experiment deals with Prominin-1 (Prom1) W795R, C-terminally Strep-tagged (human). Briefly: co-IP; EVs from cells co-transfected with Strep-tagged and mScarlet-tagged Prom1, solubilized with 1% DDM; Strep resin; co-purified Prom1-mScarlet measured by fluorescence imaging of the resin beads (CY3 filter set); control with Prom1-mScarlet alone.

“Prominin-1 (Prom1) W795R, C-terminally Strep-tagged (natural protein)” registered a co-purified mScarlet fluorescence, percent of WT Prom1 of 60%.
